Measured values taken from patent publication US20180291107A1 (Eli Lilly, published 2018).

B1: Antibody 1 (antibody, human IgG1, kappa, V domains shown)
VH: QDQLVESGGGVVQPGRSLRLSCAASGFTFSSYGMHWVRQAPGEGLEWVAVIWYDGSNKYYADSVKGRFTISRDNSKNTLYLQMNSLRAEDTAVYYCARGDYEVDYGMDVWGQGTTVTVAS
VL: AIQLTQSPSSLSASVGDRVTITCRASQGISNALAWYQQKPGKAPKLLIYDASSLESGVPSRFSGSGSGTDFTLTISSLQPEDFATYYCQQFNSYPWTFGQGTKVEIKR
notes: also called Anti-CSF-1R antibody
B2: CS7 (antibody, V domains shown)
VH: DRQMVESGGGLVRPGRSLKLSCAASGFTFSNYYMAWVRLAPSKGLEWVASISPSGDNTYYPDSVQGRFTISRDNAETTLYLQVDSLRSEDTATYYCATRHYGYSFFDYWGQGVLVTVSS
VL: DTVLTQSPALAVSPGERVTISCRASESVSTLIHWYQQKPGQQPKLLIFLASHLESGVPARFSGSGSGTDFTFTIDPVEADDTATYYCQQSWNDPPTFGGGTKLELK
notes: Rat antibody generated from a hybridoma; also called IMC-CS7; rat anti-mouse CSF-1R antibody
B3: Antibody A (antibody, human IgG1, lambda, V domains shown)
VH: QVQLVQSGAEVKKPGSSVKVSCKASGGTFSSYAISWVRQAPGQGLEWMGGIIPIFGTANYAQKFQGRVTITADKSTSTAYMELSSLRSEDTAVYYCARSPDYSPYYYYGMDVWGQGTTVTVSS
VL: QSVLTQPPSASGTPGQRVTISCSGSSSNIGSNTVNWYQQLPGTAPKLLIYGNSNRPSGVPDRFSGSKSGTSASLAISGLQSEDEADYYCQSYDSSLSGSVFGGGIKLTVLG
notes: also called Anti-PD-L1 antibody

How the values were obtained:
mouse CSF-1R = biological target: T1, mouse CSF-1R (mouse, UniProt P09581 20-511, limits assumed); assay: not described
T1 construct: also called murine target protein (of the CSF-1R antibody); murine CSF-1R
T1 sequence (looked up): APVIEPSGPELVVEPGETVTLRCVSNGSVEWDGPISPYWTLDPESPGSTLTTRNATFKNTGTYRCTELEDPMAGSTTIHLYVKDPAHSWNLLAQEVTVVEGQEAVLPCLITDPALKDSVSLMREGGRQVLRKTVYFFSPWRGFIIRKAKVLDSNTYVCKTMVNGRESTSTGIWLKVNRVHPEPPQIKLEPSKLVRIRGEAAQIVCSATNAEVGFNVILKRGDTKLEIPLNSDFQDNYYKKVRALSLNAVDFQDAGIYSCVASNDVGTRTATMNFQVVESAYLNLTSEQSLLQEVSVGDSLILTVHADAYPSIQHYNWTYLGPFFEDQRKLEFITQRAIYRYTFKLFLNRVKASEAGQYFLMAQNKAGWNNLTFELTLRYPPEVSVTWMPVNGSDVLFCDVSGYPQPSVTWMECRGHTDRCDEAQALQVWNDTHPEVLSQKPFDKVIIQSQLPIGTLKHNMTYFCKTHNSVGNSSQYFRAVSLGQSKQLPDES

mouse PD-L1 = biological target: T2, mouse PD-L1 (mouse, UniProt Q9EP73 19-238, limits assumed); assay: not described
T2 construct: also called murine target protein (of the PD-L1 antibody); murine PD-L1

[1] = biological target: T3, Soluble human PD-L1-Fc fusion protein (human, UniProt Q9NZQ7 19-239, limits assumed); assay: SPR (Biacore T200), antibody immobilised, PD-L1-Fc as analyte, 37 C, 1:1 model
T3 construct: not shown: Fc part
Protocol: The kinetics and equilibrium dissociation constant (KD) for human PD-L1 is determined for anti-PD-L1 antibodies of the present invention using surface plasmon resonance (Biacore).
Immobilization of anti-PD-L1 antibodies of the present invention as ligand on to sensor chip surface is performed at 25° C. Soluble human PD-L1-Fc fusion protein is injected as analyte at concentrations ranging from 0.0123 nM-9 nM. The analysis is performed at 37° C. The contact time for each sample is 180 sec at 30 μl/min. The dissociation time was 240-1500 seconds. The immobilized surface is regenerated for 18 seconds with 0.95 M NaCl/25 mM NaOH at […], and then stabilized for 30 seconds. Binding kinetics are analyzed using the Biacore T200 Evaluation software (Version 3.0). Data are referenced to a blank flow cell, and the data are fit to a 1:1 binding model.

T3 sequence (Q9NZQ7 19-239 limits assumed): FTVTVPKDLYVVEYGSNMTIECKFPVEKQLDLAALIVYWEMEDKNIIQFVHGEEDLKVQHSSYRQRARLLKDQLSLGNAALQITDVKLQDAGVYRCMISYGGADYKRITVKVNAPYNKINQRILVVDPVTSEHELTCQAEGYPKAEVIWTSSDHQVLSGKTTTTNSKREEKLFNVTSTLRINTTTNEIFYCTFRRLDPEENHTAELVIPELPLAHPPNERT
T2 sequence (Q9EP73 19-238 limits assumed): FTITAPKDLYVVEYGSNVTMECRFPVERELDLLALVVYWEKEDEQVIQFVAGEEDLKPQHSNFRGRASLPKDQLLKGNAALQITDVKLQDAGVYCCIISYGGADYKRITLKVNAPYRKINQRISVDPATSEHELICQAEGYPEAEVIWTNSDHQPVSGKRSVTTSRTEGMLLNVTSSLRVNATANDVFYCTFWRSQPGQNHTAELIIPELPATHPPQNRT

Row | Binder | binding result (mouse CSF-1R) | binding result (mouse PD-L1) | Kd [1]
1 | B1 | no binding | – | –
2 | B2 | binds | – | –
3 | B3 | – | no binding | 0.082 nM
